Laboratory results from patent US20170114146A1 (Hoffmann-La Roche, published 2017).

B1: CD33 CD3 TCB molecule B ("2+1 IgG CrossFab, inverted" with charge modifications, CD33 binders based on anti-CD33 antibody 2) (bispecific antibody)
chain 1: EVQLLESGGGLVQPGGSLRLSCAASGFTFSTYAMNWVRQAPGKGLEWVSRIRSKYNNYATYYADSVKGRFTISRDDSKNTLYLQMNSLRAEDTAVYYCVRHGNFGNSYVSWFAYWGQGTLVTVSSASVAAPSVFIFPPSDEQLKSGTASVVCLLNNFYPREAKVQWKVDNALQSGNSQESVTEQDSKDSTYSLSSTLTLSKADYEKHKVYACEVTHQGLSSPVTKSFNRGEC
chain 2: EVQLVQSGAEVKKPGSSVKVSCKASGYTITDSNIHWVRQAPGQSLEWIGYIYPYNGGTDYNQKFKNRATLTVDNPTNTAYMELSSLRSEDTAFYYCVNGNPWLAYWGQGTLVTVSSASTKGPSVFPLAPSSKSTSGGTAALGCLVEDYFPEPVTVSWNSGALTSGVHTFPAVLQSSGLYSLSSVVTVPSSSLGTQTYICNVNHKPSNTKVDEKVEPKSCDKTHTCPPCPAPEAAGGPSVFLFPPKPKDTLMISRTPEVTCVVVDVSHEDPEVKFNWYVDGVEVHNAKTKPREEQYNSTYRVVSVLTVLHQDWLNGKEYKCKVSNKALGAPIEKTISKAKGQPREPQVCTLPPSRDELTKNQVSLSCAVKGFYPSDIAVEWESNGQPENNYKTTPPVLDSDGSFFLVSKLTVDKSRWQQGNVFSCSVMHEALHNHYTQKSLSLSP
chain 3: not shown
chain 4: DIQLTQSPSTLSASVGDRVTITCRASESLDNYGIRFLTWFQQKPGKAPKLLMYAASNQGSGVPSRFSGSGSGTEFTLTISSLQPDDFATYYCQQTKEVPWSFGQGTKVEVKRTVAAPSVFIFPPSDRKLKSGTASVVCLLNNFYPREAKVQWKVDNALQSGNSQESVTEQDSKDSTYSLSSTLTLSKADYEKHKVYACEVTHQGLSSPVTKSFNRGEC
B2: CD33 CD3 TCB molecule A ("2+1 IgG CrossFab, inverted" with charge modifications, CD33 binders based on anti-CD33 antibody 1) (bispecific antibody)
chain 1: QVQLVQSGAEVKKPGSSVKVSCKASGYTFTDYNMHWVRQAPGQGLEWIGYIYPYNGGTGYNQKFKSKATITADESTNTAYMELSSLRSEDTAVYYCARGRPAMDYWGQGTLVTVSSASTKGPSVFPLAPSSKSTSGGTAALGCLVEDYFPEPVTVSWNSGALTSGVHTFPAVLQSSGLYSLSSVVTVPSSSLGTQTYICNVNHKPSNTKVDEKVEPKSCDKTHTCPPCPAPEAAGGPSVFLFPPKPKDTLMISRTPEVTCVVVDVSHEDPEVKFNWYVDGVEVHNAKTKPREEQYNSTYRVVSVLTVLHQDWLNGKEYKCKVSNKALGAPIEKTISKAKGQPREPQVCTLPPSRDELTKNQVSLSCAVKGFYPSDIAVEWESNGQPENNYKTTPPVLDSDGSFFLVSKLTVDKSRWQQGNVFSCSVMHEALHNHYTQKSLSLSP
chain 2: not shown
chain 3: B1 chain 1
chain 4: DIQMTQSPSSLSASVGDRVTITCRASESVDNYGISFMNWFQQKPGKAPKLLIYAASNQGSGVPSRFSGSGSGTDFTLTISSLQPDDFATYYCQQSKEVPWTFGQGTKVEIKRTVAAPSVFIFPPSDRKLKSGTASVVCLLNNFYPREAKVQWKVDNALQSGNSQESVTEQDSKDSTYSLSSTLTLSKADYEKHKVYACEVTHQGLSSPVTKSFNRGEC

How the values were obtained:
Assay in all cases: cell-based or functional assay
[1] = biological target: T1, CD33 (myeloid cell surface antigen CD33) on human AML cell lines HL-60 and HEL (human, UniProt P20138 18-364)
[2] = biological target: CD3 antigen expressed on Jurkat-NFAT reporter cells (human, UniProt P07766 23-207)
[3] = biological target: T1, CD33 (myeloid cell surface antigen …); remark: listed apart in the source

T1 sequence (P20138 18-364): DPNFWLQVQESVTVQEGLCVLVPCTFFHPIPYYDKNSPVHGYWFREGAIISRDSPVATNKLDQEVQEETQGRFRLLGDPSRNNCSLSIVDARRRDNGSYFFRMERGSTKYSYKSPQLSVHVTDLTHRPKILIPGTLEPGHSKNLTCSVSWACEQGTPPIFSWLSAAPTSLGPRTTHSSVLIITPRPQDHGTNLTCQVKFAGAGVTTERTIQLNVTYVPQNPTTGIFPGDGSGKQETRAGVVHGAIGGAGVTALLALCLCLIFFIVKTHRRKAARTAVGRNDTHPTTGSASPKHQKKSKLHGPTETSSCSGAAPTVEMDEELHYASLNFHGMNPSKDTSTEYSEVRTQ
Chain of CD3 antigen expressed on Jurkat-NFAT reporter cells (P07766 23-207 limits assumed): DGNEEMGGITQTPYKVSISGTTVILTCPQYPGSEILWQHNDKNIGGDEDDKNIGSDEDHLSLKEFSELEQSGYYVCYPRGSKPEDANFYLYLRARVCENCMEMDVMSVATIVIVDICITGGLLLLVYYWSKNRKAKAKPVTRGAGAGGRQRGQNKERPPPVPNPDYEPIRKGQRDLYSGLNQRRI

Binder | EC50, activation of Jurkat-NFAT reporter cells via CD3 (luminescence, 5 h, HL-60 target cells, E:T 2.5:1) [1] | EC50, activation of Jurkat-NFAT reporter cells via CD3 (luminescence, 5 h, HL-60 target cells, E:T 2.5:1) [2] | EC50 [pM] 42 h, T-cell mediated killing of HL-60 tumor cells (LDH release, human pan T cells, E:T 5:1) [3]
B1 | 4.3 pM | 4.3 pM | 18.5 pM
B2 | 79.4 pM | 79.4 pM | 19.8 pM
